According to IntAct's records for PubMed 18957540:

Molecular target: ntrk2_rat Ntrk2 (UniProt Q63604)
Sequence (Q63604 whole entry): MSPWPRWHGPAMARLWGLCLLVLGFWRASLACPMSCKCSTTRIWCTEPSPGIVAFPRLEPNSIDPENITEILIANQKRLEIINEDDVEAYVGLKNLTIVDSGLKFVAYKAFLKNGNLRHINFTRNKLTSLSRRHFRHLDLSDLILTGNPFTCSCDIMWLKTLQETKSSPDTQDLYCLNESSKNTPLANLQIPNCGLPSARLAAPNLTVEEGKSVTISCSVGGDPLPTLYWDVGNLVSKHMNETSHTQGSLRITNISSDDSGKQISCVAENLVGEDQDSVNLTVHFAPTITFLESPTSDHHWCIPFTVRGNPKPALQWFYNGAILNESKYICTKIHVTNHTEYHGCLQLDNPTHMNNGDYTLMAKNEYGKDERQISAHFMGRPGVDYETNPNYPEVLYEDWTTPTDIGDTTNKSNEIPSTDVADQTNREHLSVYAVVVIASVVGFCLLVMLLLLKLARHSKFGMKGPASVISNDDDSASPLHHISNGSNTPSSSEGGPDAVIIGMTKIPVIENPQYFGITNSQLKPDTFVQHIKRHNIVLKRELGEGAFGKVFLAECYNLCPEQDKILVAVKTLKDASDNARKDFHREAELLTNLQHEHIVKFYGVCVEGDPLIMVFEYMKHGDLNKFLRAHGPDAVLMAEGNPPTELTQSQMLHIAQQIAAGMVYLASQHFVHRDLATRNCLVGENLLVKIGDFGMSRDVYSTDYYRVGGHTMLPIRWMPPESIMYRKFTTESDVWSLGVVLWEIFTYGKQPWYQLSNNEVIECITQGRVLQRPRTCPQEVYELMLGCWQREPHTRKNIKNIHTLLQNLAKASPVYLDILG

effect of a mutation on the interaction: decreasing interaction strength
Substance: Protein farnesyltransferase/geranylgeranyltransferase type-1 subunit alpha (Rattus norvegicus (Rat)) (from UniProt Q04631) Y166A
